From a protein production outcome set (Wang et al. 2014)

test: label from the status in PepcDB records
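Further: failed if final PepcDB status was selected cloned or expressed and not failed if soluble or beyond.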

Sequence | protein production
MSSEMEPLLLAWSYFRRRKFQLCADLCTQMLEKSPYDQAAWILKARALTEMVYIDEIDVDQEGIAEMMLDENAIAQVPRPGTSLKLPGTNQTGGPSQAVRPITQAGRPITGFLRPSTQSGRPGTMEQAIRTPRTAYTARPITSSSGRFVRLGTASMLTSPDGPFINLSRLNLTKYSQKPKLAKALFEYIFHHENDVKTIHLEDVVLHLGIYPFLLRNKNHIEKNALDLAALSTEHSQYKDWWWKVQIGKCYYRLGMYREAEKQFKSALKQQEMVDTFLYLAKVYVSLDQPVTALNLFKQGLDKFPGEVTLLCGIARIYEEMNNMSSAAEYYKEVLKQDNTHVEAIACIGSNHFYSDQPEIALRFYRRLLQMGIYNGQLFNNLGLCCFYAQQYDMTLTSFERALSLAENEEEAADVWYNLGHVAVGIGDTNLAHQCFRLALVNNNNHAEAYNNLAVLEMRKGHVEQARALLQTASSLAPHMYEPHFNFATISDKIGDLQRSYVAAQKSEAAFPDHVDTQHLIKQLRQHFAML | failed
MSSENDFVEFSSMFERIIQGRGDGLSRFLPVIVALAAREDDDDQGSTDQTTRRGDPLSPRFVMIGSRSGLDDFFSDGGKQGRSPALKSEVENMPRVVIGEDKEKYGGSCAICLDEWSKGDVAAEMPCKHKFHSKCVEEWLGRHATCPMCRYEMPVEEVEEEKKIGIWIGFSINAGDRRN | failed
MSSERDLVNFLGDFSMDVAKAVIAGGVATAIGSLASFACVSFGFPVILVGGAILLTGIVCTVVLNEIDAQCHLSEKLKYAIRDGLKRQQELDKWKRENMTPFMYVLNTPPVI | failed
MSSEYKKGIFLALGAYILWGILPIYWRLIDEIGAFEILAFRIIFSVIFMIFVLIIGKNQRNAFFRDVNQLVSHPVQLIAIIVAGYVITVNWGTFIWAVSNGHVLQSSLGYYINPLVSIVLALIFLKERFNKFEWLAIIFALVGVLYMTIKIGEFPFISLLLAFSFGIYGLLKKIVHIDAISSITIECIVTAPAGLIYVIYLWQQQHITFGLNISSFWLLFSGAITAIPLILFSAGAKRIPLSLTGFIQYVGPTIMFILGIFVFKEPFNTDQLITFIFIWIGIVLYSISQYVQIKKNPVVK | failed
MSSHNMTEVLVGGAVLAAALTFGIYASQATGLSRGTGGYELAASFRSLEGVTVGTDVRLAGVKIGTVTGVDLNPESYRADTRFTVSEGIQIPDDSAAVISSEGLLGGNFLEIMPGGSAFYFEPGDVIDDTQGAVSLISLLVKFVAGDGSGELEHHHHHH | not failed
MSSKMVKSSEIVGKLNLRAHQEGGFFAETFRDSSVFLSTSQLPPTFKVDRAVSTSIYFLLPSGSVSRLHRIPMAETWHFYLGEPLTVVELYDDGKLKFTCLGPDLFEGDQKPQYTVPPNVWFGSFPTKDVHFSQDGALLKAEARDSENHFSLVGCTCAPAFQFEDFELAKRSDLLSRFPQHESLITMLSYPE | failed
MSSKPLYTILTVFNPIFIYFTKRDNLHTLRFKKDRAIKISEELFPDELCERCGRCCILHAYKTEDGIKTIYCEHLDPETKLCKVYKDRFKHRCLTVMEGILAGVFPKDCPYVKNLKNYEEPWFYRHLRDLEHHHHHH | failed
MSSKRPPAPPPPIPGFKYISLLGSGGFSDVYLYEQDRPRRKVAVKVLLSDLKTEGARRRFESEANLMAQLSSHPYIVTIFEAEITETGHSYLAMEYCSRPSLDVRYRRQRFSVDEVLAVGIQVASAVETAHRAGIVHRDIKPANILVTDYNRPALTDFGISGTIGADTEDDAGMSIPWSPPEQFRGGAVDGVPVDIWALGATLYTLLAGRSPFVLPGQDNSQRELISRITNSPLPRLGRADVPESLELVLATSMAKSPESRYSSAHAFALALQRIQAELNLSVTPFEVLEEPGHGDDQHPDDNFEETRVRSIASIDPDASGTATTGSAPTFPARTFPTTATGASGQPTQPQSLPTSRPQPTNPPQTVQSHAGSSAPPQFHAPAPGSYTAPGSYTAPGTYTAPGTYRASGSHNATAEPDTAESTVLRGWQPSRPQDDLGATVSRSNSPAGASPATREDARPADHSKRNLWLAATGAAVLVVAIVVGVVLGAQAQPKVVPTEAASKPPADALGDGSVPDVEGLIGVKDPEKPDFADFRWTNPQPQSGDMYMWRYRTALIPEGDYEAVTEPHARPYFGGEKQLCIQVIIVRRDGTSSPGDTGSIACVDQ | failed
MSSLFVVGIGPGSNDLMTPQASLAIERSEYVIGFSLYVSFIKEKFPNKIYISNGMQGEIERAKKAIELARSGHNVSIISSGDAGIYGIAGAVFEILSTLEDNMPEVSVVPGIS | not failed
MSSLILSTFAERLTELGQRTTFLELPPYLDRSFPNSNSGKVVQVGKYLPPEVKHKAVDLLREYKDV | failed
MSSLKGHPKGLYLIFATSTAERFSYYGMRAIFILFLTQALLFDKEAAASIYGSYTGLVYLTPLIGGYIADKYWGIRRSVFWGAVMMAVGQFLMFMSASSLNNTDLAHWLMYGGLGFMILGNGCFKPTVSSLVGQLYEPGDKRLDAAYTIFYMGVNVGSFAAPLICGFLGDTGNPQDFKWGFLASGIMTLFTVVLFETQKNKYLFSPSGEPIGIVPDARREKKEDKAEHISHPKMDKRTKVRNIIIITALTVALIAFFSYAFSDDWISVGIFTACIVFPVLILLDGSLTKVERSRIFVIYIVAFFVIFFWAAYEQAGASLTLFASEQTDRSIFGWEMPASWFQSFNPLFVVILAYIMPGIWGFLNKRNMEPASPTKQAIGLLLLSLGYLFICFGVKDAIPGVKVSMIWLTGLYFIHTMGEIALSPIGLSMVNKLSPLRFASLMMGIWYLSTATANKFAGMLSGLYPEDGKVKSILGYQIATMYDFFMLFVIMSGVASLILFLLSKKLQKMMHGVE | failed
MSSNPLRFFVLTIFPHIISCYSEYGIVKQAIKKGKVEVYPIDLREFAPKGQVDDVPYGGLPGMVLKPEPIYEAYDYVVENYGKPFVLITEPWGEKLNQKLVNELSKKERIMIICGRYEGVDERVKKIVDMEISLGDFILSGGEIVALAVIDAVSRVLPGVLSEPQSIQEDSFQNRWLGYPVYTRPREYRGMKVPEELLSGHHKLIELWKLWHRIENTVKKRPDLIPKDLTELEKDILNSILSGKSFKEWLKEHKHLL | not failed
MSSNVPADMINLRLILVSGKTKEFLFSPNDSASDIAKHVYDNWPMDWEEEQVSSPNILRLIYQGRFLHGNVTLGALKLPFGKTTVMHLVARETLPEPNSQGQRNR | failed
MSSPNPEDVPRRPEPEPSSSNKKKKKRKWLRQEASIQALTRAGHGALQAGQNHEALNNFQRAFLLASKAPQTRDTPVLQACAFNLGAAYVETGDPARGLELLLRAHPEEKAQGRRHGDQCFNVALAYHALGELPQALAWYHRALGHYQPQGDQGEAWAKMGACYQALGQPELAAHCLQEASQAYAQERQLRAAALALGAAAGCMLKSGRHRVGEVVQVLEKSRRLAERSTERRLLGHLYNDLGLGYSQLQLFPLAVEAFLQALPLCWVPGEQATVLRNLGMAHNALGNYQEAREFHQKAADLHGSVGQRWEQGRSFGSLAFALSQLGDHKAARDNYLHALQAARDSGDMKGQWQACEGLGAAAARLGQYDQALKYYKEALAQCQKEPDSVRERLVAKLADTVRTRLAQVGLVQTHTLTSAPGRLQAPGGASQAEGTPAKAGSSTAGVQHRSSSGWEDEEFEEGHQKKKEERSANVPVRAGPGRPELCFLPGTVNHSHHLASSCPTFTKHTPCRGTVLGKASIYSPGPRAHLPFVGPGPPRAEYPSILVPNGPQANRSSRWPRESLSRSRQRRPMESGICTIV | failed
